# In the supplement of paper PMC9732359:
# ± gives the uncertainty stated by the source.
# Assay: protein stability index of a GFP-peptide fusion (yeast GPS) (PSI 1-4); higher = more stable; sorted into four equal gates, so the index is relative within each strain
# Method in brief: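 Tiled 17-residue yeast protein peptides were fused downstream of GFP in a plasmid that also expresses Cherry, and the pooled library was carried in yeast. Mid-log cultures in leucine-free medium were sorted into four equal gates by GFP/Cherry fluorescence ratio, and plasmids from each gate were PCR-amplified and Illumina-sequenced, with reads assigned to strains by barcodes. The protein stability index for each peptide was each gate's read frequency times its gate number, summed.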
Sequence,protein stability index (doa10∆),protein stability index (pdr5∆),protein stability index (san1∆),protein stability index (ubr1∆)
RLDNLQDIKKAKRVENF [DSN1],1.52 ± 0.059,1.42 ± 0.039,2.56 ± 0.074,2.56 ± 0.048
LSRPYKALKTNINFASG [CDC53],2.4 ± 0.049,2.61 ± 0.062,2.4 ± 0.057,2.66 ± 0.048
NLSVTSPYNADFDGDEM [RPO21],2.83 ± 0.063,3.14 ± 0.059,2.96 ± 0.061,3.04 ± 0.042
MGQGLCNNINKGLKEND [BRR2],3.13 ± 0.095,3.57 ± 0.15,3.2 ± 0.071,3.39 ± 0.1
MPYTINELLEMVGLASG [BRR2],2.56 ± 0.049,2.31 ± 0.057,2.58 ± 0.052,2.52 ± 0.031
ATNTFGSNQQSSTGGGL [YGR119C/NUP57],2.89 ± 0.12,3.23 ± 0.076,3.15 ± 0.13,2.9 ± 0.075
KASLLLHVLVAHKLKKS [FAS2],1.38 ± 0.055,1.27 ± 0.043,1.12 ± 0.088,1.25 ± 0.038
VRPFGVSTLIAGFDPRD [PRE6],1.5 ± 0.15,1.7 ± 0.13,1.75 ± 0.17,1.41 ± 0.084
VTRGISVLKDSDDKTRQ [PRE1],3.16 ± 0.078,3.28 ± 0.066,3.18 ± 0.056,3.17 ± 0.059
KNSFQQALQMKAMDIPI [SWP82],1.29 ± 0.035,1.55 ± 0.055,1.37 ± 0.064,1.59 ± 0.038
TPNMVNSEISNLPKDKS [SSN2],2.74 ± 0.08,3.08 ± 0.17,2.69 ± 0.087,2.9 ± 0.066
TKTTGKCGSVTVRLIPA [RPS2],1.34 ± 0.11,1.7 ± 0.082,1.35 ± 0.17,1.71 ± 0.11
FLSKPSKALYPDYYMII [SNF2],2.31 ± 0.037,2.4 ± 0.045,2.19 ± 0.047,2.54 ± 0.035
VDIYTHFTSPIRRYCDV [DIS3],1.61 ± 0.043,1.91 ± 0.055,1.94 ± 0.073,2.19 ± 0.04
LGNTSSVANTPSEIPDA [SWI3],2.95 ± 0.059,3.06 ± 0.062,3.03 ± 0.091,2.98 ± 0.047
FIMASVGKYDKAIELLE [SRP72],2.37 ± 0.12,2.38 ± 0.11,2.54 ± 0.13,3.1 ± 0.2
TVLADEFIAHRLGLIPL [RPB3],2.4 ± 0.087,2.16 ± 0.12,2.96 ± 0.047,3.12 ± 0.071
QSTNLNRSAKNSKNDSA [YCS4],2.53 ± 0.05,2.63 ± 0.05,2.67 ± 0.064,2.79 ± 0.046
DWVENELEALKLEAEEI [FAS2],3.29 ± 0.27,–,–,3.49 ± 0.24
ITVVLGVNGYIWLRKTS [RRP4],1.61 ± 0.2,1.62 ± 0.12,1.34 ± 0.26,1.95 ± 0.11
LMCLSSKYCEKSLPLLI [YCS4],2.45 ± 0.1,2.71 ± 0.076,2.39 ± 0.089,2.39 ± 0.052
KIQFILEQMELSILKGD [RPN5],–,2.57 ± 0.23,2.35 ± 0.29,2.65 ± 0.19
IAGINKKKGLDENTSGK [PRP28],3.48 ± 0.067,3.47 ± 0.089,3.44 ± 0.056,3.6 ± 0.075
RYVYAHFPINVNIVEKD [RPL9A],2.04 ± 0.048,2.17 ± 0.049,2.06 ± 0.062,2.19 ± 0.043
RMSSEEVNSLLLQVNKT [GRR1],3.03 ± 0.16,3.13 ± 0.2,2.96 ± 0.19,2.78 ± 0.16
VPKEGLFYFDSSFRPCP [BRR2],3.17 ± 0.068,3.28 ± 0.058,3.38 ± 0.046,3.14 ± 0.039
